Test results published in patent US7740850B2, “PDGFRβ-specific antibodies” (ImClone, LLC, priority 2007, dated 2010).

B1: 2C5: PDGFRβ-specific human antibody binding both human and murine PDGFRβ; SEQ ID NOS in Table 1 (antibody, listed as Homo sapiens, V domains shown)
VH: QVQLVQSGAEVKKPGSSVKVSCKASGGTFSSYAISWVRQAPGQGLEWMGRIIPILGIANYAQKFQGRVTITADKSTSTAYMELSSLRSEDTAVYYCARDMGSRNYYYFYWGQGTLVTVSS
VL: EIVLTQSPATLSLSPGERATLSCRASQSVGRYLAWYQQKPGQAPRLLIYGASNRATGIPARFSGSGSGTDFTLTISSLEPEDFAVYYCQQRSNWPLTFGGGTKVEIK
B2: 1B3: human anti-mouse PDGFRβ antibody from Fab phage display library, human κ/γ1 constant regions; SEQ ID NOS in Table 1 (antibody, listed as Homo sapiens, V domains shown)
VH: QVQLQESGGGLVKPGGSLRLSCAASGFTFSSYSMNWVRQAPGKGLEWVSSISSSSSYIYYADSVKGRFTISRDNSKNTLYLQMNSLRAEDTAVYYCAKGGRPLLVFDFWGQGTLVTVS
VL: EIVMTQSPGTLSLSPGERATLSCRASQSVSSSYLAWYQQKPGQAPRLLIYDASKRATGIPARFSGSGSGTDFTLTISTLESEDSAVYYCQQRGYWPPITFGQGTRLEIKR
modifications: human kappa/gamma1 constant regions

Key:
hPDGFRβ = hPDGFRβ (Homo sapiens, UniProt P09619); assay: Antibody affinity determination (BIAcore, surface plasmon resonance); assay type: binding; conditions: one experiment
Sequence of hPDGFRβ (P09619 33-1106): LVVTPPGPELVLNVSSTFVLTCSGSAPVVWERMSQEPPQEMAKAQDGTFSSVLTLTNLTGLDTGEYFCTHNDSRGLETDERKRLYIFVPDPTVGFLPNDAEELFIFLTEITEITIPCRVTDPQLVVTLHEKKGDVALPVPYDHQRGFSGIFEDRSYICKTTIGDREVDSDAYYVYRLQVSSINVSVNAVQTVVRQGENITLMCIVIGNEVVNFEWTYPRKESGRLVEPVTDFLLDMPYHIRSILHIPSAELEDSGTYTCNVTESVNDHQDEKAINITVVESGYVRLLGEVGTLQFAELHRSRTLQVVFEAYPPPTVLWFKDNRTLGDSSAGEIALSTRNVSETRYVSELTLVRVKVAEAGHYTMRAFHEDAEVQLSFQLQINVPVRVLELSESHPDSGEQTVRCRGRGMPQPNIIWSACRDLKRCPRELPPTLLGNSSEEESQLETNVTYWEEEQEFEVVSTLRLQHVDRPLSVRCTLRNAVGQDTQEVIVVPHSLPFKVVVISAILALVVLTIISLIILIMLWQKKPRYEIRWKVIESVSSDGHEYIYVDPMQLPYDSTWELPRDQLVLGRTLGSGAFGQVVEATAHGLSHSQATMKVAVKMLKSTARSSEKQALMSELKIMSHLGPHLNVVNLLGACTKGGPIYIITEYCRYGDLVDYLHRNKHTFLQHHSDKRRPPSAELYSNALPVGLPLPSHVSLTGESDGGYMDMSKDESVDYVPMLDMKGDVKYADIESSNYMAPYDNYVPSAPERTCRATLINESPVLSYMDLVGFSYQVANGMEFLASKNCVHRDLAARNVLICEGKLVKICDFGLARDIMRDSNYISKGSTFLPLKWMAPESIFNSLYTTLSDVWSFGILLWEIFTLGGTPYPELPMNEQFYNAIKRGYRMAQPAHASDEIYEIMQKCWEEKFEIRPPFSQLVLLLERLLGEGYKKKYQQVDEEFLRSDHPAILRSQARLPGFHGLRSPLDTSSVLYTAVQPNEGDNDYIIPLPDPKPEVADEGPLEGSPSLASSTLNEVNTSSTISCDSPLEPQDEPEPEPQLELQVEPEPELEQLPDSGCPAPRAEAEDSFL
Description: Antibody affinity determination. The binding kinetics of various Fab and IgG to mPDGFRβ were measured using a BIAcore 3000 biosensor (BIACORE, Inc., Uppsala, Sweden). Briefly, mPDGFRβ was immobilized onto a sensor chip and soluble antibodies were injected at concentrations ranging from 1.5 nM to 100 nM. Sensorgrams were obtained at each concentration and were evaluated using the program, BIA Evaluation 2.0. The affinity constant, Kd, was calculated from the ratio of dissociation rate (koff)/association rate (kon) (Lu, D. et al., 2002; Zhu, Z. et al., 1998; Loizos, N. et al., 2005).
As determined by BIAcore analysis, 2C5 binds to hPDGFRβ with similar binding characteristics as 1B3 binds to mPDGFRβ. […] However, whereas 1B3 binds to murine PDGFRβ but not human PDGFRβ, 2C5 binds to both proteins. (FIG. 6).

NCI-H460 cells = assay: PDGF-BB-stimulated cell migration, two-chamber technique; assay type: cell-based, human; conditions: antibody 30 μg/ml, PDGF-BB 100 ng/ml, 4 hours
Description: (§1) 2C5 inhibits PDGF-BB-stimulated cell migration in a cell-based migration assay. Two-chamber technique was used to determine the inhibitory ability of 2C5 in cell migration with NCI-H460, OVCAR8, WS-1 and U-118 cell lines. Collagen (100 μg/ml) was added to the up chamber (100 μl) and the lower chamber (150 μl) and incubated at 37° C. for 1 hour. After washing the chambers twice with PBS, 100 μl of starved cells (estimated 0.5-10×10^6/ml in serum-free medium) were added to the up chamber and 150 μl of serum-free medium was added to the lower chamber and then incubated at 37° C. for 4 hours. […] In 2C5 wells, 2C5 were added into the up chamber at a final concentration of 30 μg/ml. Non-migrated cells in the up chamber were scraped from the membrane. After washing three times with PBS, migrated cells on the membrane of the lower chamber side were fixed with 4% formalin and stained with Hoechst (4 μg/ml). The results were captured and cells were counted under fluorescence microscopy.

OVCAR8 cells = assay: as above; assay type: cell-based, human; conditions: antibody 30 μg/ml, PDGF-BB 100 ng/ml, 4 hours
Description: as §1

[1] = test system: NCI-H460 lung carcinoma xenograft; assay type: in vivo; conditions: for Tumor Volume T/C %: NCI-H460 xenograft, monotherapy
Description: Six xenograft models, SK-OV-3, OV-CAR-8, BxPC-3, OV-CAR-5, Caki-1 and NCI-H460 (A to F, respectively) were used to examine the effects of 1B3 on xenograft tumors in athymic nude mice. Mice with established tumors (˜250-300 mm^3) were randomly grouped and treated with 1B3, normal human IgG, or saline by intraperitoneal injection twice weekly (except for BxPC-3 model where the mice were treated three times a week) at the dose indicated.
Subcutaneous xenografts of BxPC-3 (A) or 5×10^6 NCI-H460 (B) were established in female athymic (nu/nu) mice. When tumors reached ˜300-350 mm^3, mice were randomized and divided into four groups (n=12), and treated with USP saline, 40 mg/kg of 1B3, 40 mg/kg of DC101 or 40 mg/kg 1B3 plus 40 mg/kg DC101, three times a week.
Six human xenograft tumor models, including three ovarian carcinoma (SK-OV-3, OV-CAR-5 and OV-CAR-8), one pancreatic carcinoma (BxPC3), one lung carcinoma (NCI-H460), and one kidney carcinoma (Caki-1), were used to assess the antitumor activity of 1B3 in vivo. Athymic (nu/nu) mice (female, 7-8 weeks of age) were housed for 7-10 days before xenograft implantation. Each mouse was injected subcutaneously with 3-10×10^6 cells of SK-OV-3, OVCAR-5, OVCAR-8, Caki-1, BxPC3 or NCI-H460 tumor cells. When tumors reached approximately 250-300 mm^3, mice were randomized into groups of 10 to 12 animals each and treated by intraperitoneal injection, 2 to 3 times per week, with 1B3, DC101, or 1B3 in combination with DC101. Human IgG and/or USP saline were used as control groups. Tumor sizes and mouse body weight were measured twice a week. Tumor volume was calculated using the formula: π/6×(length×width^2), where length=longest diameter and width=diameter perpendicular to length. The ratio of average tumor volume in the treatment group versus that in the control group (T/C %) was calculated. Statistic analysis was performed by Student's t-test.
To study the antitumor effects of monotherapy with an anti-PDGFRβ antibody, mice were treated with 1B3, normal human IgG, or saline twice weekly by intraperitoneal injections. In SK-OV-3 model, tumor-bearing mice were given 1B3 at 6, 20, or 60 mg/kg dose.
Athymic nude mice bearing xenografted tumors of 300-350 mm^3 size were randomized and divided into four treatment groups (n=12/group), and were treated by intraperitoneal injections three times a week with saline, 1B3 (40 mg/kg), DC101 (40 mg/kg), or 1B3 (40 mg/kg) plus DC101 (40 mg/kg).
The five human xenograft tumor models described above (OVCAR-5 and OVCAR-8, BxPC3, NCI-H460, and Caki-1) were used to assess the antitumor activity of 2C5 in vivo.

β1-2 = target: T1, β1-2 (Homo sapiens, UniProt P09619); assay: Epitope mapping, shorter version of PDGFRβ (D1D2); assay type: binding; conditions: ✓ / X, key not given
T1 construct: Shorter versions of PDGFRβ, including D1D2, D2D3 and D1D2D3, were then made; made in house
T1 sequence (P09619 33-210): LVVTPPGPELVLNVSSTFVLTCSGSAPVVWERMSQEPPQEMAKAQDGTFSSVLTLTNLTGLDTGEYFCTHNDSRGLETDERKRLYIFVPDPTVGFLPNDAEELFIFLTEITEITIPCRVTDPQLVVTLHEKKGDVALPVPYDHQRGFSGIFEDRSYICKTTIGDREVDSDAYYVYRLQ
Description: 2C5 binds to domain 1 (D1) and domain 2 (D2) of PDGFRβ. Various chimeric constructs of PDGFRβ and PDGFRα were first made by domain swapping, starting from N-terminus to C-terminus with PDGFRβ domain(s) replacing PDGFRα domain(s). The PDGFRβ/α chimera were tested for the ability of 2C5 binding. Shorter versions of PDGFRβ, including D1D2, D2D3 and D1D2D3, were then made to confirm the 2C5 binding domains on PDGFRβ.

| Molecule | Kd (hPDGFRβ) [pM] | inhibition of PDGF-BB-stimulated cell migration (NCI-H460 cells) | inhibition of PDGF-BB-stimulated cell migration (OVCAR8 cells) | Tumor Volume T/C % [1] [%] | binding to β1-2 (β1-2) | T/C % on day 22 post treatment ([1]; NCI-H460, 40 mg/kg each antibody i.p. three times a week) [%] | tumor growth inhibition ([1]; NCI-H460, 60 mg/kg i.p. twice weekly) |
| --- | --- | --- | --- | --- | --- | --- | --- |
| B1 | 13.6 | inhibited PDGF-BB-stimulated cell migration completely | inhibited PDGF-BB-stimulated cell migration completely | 60 | ✓ |  |  |
| B2 | 41.7 |  |  | 60 |  | 66 | significantly slowed the growth |
